Patent US20070020267A1

How the values were obtained:
[1] = biological target: T1, murine VEGF (mVEGF) (mouse) (UniProt Q00731); experiment: BIAcore or solution binding ELISA, control Fab
T1 sequence (looked up): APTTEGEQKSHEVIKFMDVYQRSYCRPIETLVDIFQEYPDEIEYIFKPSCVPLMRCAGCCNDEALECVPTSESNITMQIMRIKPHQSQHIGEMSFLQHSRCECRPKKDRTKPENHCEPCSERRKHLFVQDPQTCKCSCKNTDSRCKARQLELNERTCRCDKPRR

hVEGF (human) [2] = biological target: hVEGF (human) (UniProt P15692); experiment: competition; 25 C; details: Fab
mVEGF (mouse) = mVEGF (mouse) (UniProt Q00731); experiment: competition; 25 C; details: Fab
hVEGF (human) [3] = biological target: hVEGF (human) (UniProt P15692); experiment: SPR; 37 C; details: Fab
hVEGF (human) [4] = biological target: hVEGF (human) (UniProt P15692); experiment: SPR; 25 C; details: Fab
hVEGF (human) [5] = biological target: hVEGF (human) (UniProt P15692); experiment: SPR; details: Fab

Chain of Y0317 Fab (VH): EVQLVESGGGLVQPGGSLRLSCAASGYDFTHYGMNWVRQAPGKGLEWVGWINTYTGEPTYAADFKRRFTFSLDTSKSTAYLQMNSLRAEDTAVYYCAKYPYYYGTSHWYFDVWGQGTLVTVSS
Chain of Y0317 Fab (VL): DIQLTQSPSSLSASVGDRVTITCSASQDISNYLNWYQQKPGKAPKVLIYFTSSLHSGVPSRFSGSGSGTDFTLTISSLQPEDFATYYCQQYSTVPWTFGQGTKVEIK

**Q.** With Y0317 Fab as the substance, how does the Kd [1] read?
**A.** 350 nM

**Q.** With Y0317 as the substance, how does the IC50 (hVEGF (human) [2]) read?
**A.** 0.02 nM

**Q.** What about the IC50 (mVEGF (mouse)) of the same substance?
**A.** 300 nM

**Q.** What about the Kd (hVEGF (human) [3]) of the same substance?
**A.** 0.11 nM

**Q.** What about the Kd (hVEGF (human) [4]) of the same substance?
**A.** 0.2 nM

**Q.** Which IC50 (hVEGF (human) [2]) does the source give for Avastin here?
**A.** 1.1 nM

**Q.** And the Kd (hVEGF (human) [3])?
**A.** 12.9 nM

**Q.** And the Kd (hVEGF (human) [5])?
**A.** 2.9 nM

**Q.** And the Kd (hVEGF (human) [4])?
**A.** 2.9 nM
